Laboratory results published in US12060424 (AMUNIX PHARMACEUTICALS, dated 2024).

Legend:
[1] = biological target: T1, recombinant human CEA (Abcam cat #ab742), coated on ELISA plate (human, UniProt P06731 35-685, limits assumed); experiment: sandwich ELISA: recombinant human CEA coated, biotin-conjugated protein L detection
T1 construct: also called CEA antigen
T1 sequence (looked up): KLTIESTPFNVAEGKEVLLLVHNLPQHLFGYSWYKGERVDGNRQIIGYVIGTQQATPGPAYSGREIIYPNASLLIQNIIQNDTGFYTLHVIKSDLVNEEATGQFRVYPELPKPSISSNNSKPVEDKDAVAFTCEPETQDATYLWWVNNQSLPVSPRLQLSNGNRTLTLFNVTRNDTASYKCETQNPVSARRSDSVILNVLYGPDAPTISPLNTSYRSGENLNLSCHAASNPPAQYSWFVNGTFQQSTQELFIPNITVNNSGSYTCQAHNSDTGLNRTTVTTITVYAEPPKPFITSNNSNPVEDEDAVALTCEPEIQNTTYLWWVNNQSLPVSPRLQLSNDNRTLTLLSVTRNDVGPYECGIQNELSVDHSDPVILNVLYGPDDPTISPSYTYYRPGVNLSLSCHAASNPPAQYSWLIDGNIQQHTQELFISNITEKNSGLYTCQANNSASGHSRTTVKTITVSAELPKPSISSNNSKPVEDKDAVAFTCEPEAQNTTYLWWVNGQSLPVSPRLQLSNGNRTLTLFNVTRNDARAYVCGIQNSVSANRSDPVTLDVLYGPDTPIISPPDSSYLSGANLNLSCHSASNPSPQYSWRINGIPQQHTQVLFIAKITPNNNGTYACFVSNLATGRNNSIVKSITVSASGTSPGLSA

[2] = biological target: T2, Fc-tagged EpCAM (R&D Systems, cat #960-EP-050), human, coupled to SPR chip (human, UniProt P16422 24-265); experiment: SPR
T2 construct: Bought reagent; also called human EpCAM; EpCAM chip; not shown: Fc tag of the bought reagent
T2 sequence (looked up): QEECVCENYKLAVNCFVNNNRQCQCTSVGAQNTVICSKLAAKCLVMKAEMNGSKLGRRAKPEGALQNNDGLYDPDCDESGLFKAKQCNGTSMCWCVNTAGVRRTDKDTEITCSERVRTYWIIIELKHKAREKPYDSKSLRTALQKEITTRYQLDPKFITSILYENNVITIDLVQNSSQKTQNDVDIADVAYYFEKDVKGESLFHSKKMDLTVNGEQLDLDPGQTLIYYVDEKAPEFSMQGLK

[3] = biological target: recombinant human CD3 epsilon & delta (rhCD3ε & δ), Creative BioMart cat #CD3E&CD3D-219H (human) (UniProt P07766); experiment: sandwich ELISA: rhCD3ε & δ coated, peroxidase-conjugated protein L detection
[4] = biological target: T3, human EpCAM expressed on cells (CHO cells stably transfected with human EpCAM); EpCAM-positive human tumor … (human, UniProt P16422 24-314); experiment: competition flow cytometry on EpCAM-CHO cells
T3 construct: whole, on cells; also called EpCAM-CHO; hEp-CHO 4-12B
T3 sequence (looked up): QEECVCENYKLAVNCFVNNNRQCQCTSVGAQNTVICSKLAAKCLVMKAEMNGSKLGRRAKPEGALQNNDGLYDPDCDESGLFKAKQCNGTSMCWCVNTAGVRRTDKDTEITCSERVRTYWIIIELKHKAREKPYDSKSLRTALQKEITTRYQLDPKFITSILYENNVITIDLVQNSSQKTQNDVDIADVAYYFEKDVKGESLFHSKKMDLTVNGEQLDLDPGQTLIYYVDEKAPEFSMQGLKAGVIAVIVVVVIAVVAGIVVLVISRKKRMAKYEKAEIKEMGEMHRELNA

[5] = biological target: T4, recombinant human EpCAM (rhEpCAM), coated on ELISA plate (human, UniProt P16422 24-265); experiment: sandwich ELISA: rhEpCAM coated, biotin-conjugated protein L detection
T4 construct: Bought reagent
T4 sequence (looked up): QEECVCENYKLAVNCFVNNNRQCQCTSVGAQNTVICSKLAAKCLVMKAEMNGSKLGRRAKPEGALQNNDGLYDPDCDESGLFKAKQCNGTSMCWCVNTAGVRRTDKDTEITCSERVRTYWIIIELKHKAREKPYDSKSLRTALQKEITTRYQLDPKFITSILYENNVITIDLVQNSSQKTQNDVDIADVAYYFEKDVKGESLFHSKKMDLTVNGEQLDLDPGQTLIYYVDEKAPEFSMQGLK

[6] = biological target: T4, recombinant human EpCAM (rhEpCAM), …; experiment: sandwich ELISA: rhEpCAM coated, peroxidase-conjugated protein L detection
[7] = biological target: recombinant human CD3 epsilon & delta (rhCD3ε & δ), Creative BioMart cat #CD3E&CD3D-219H (human) (UniProt P07766); experiment: SPR (Biacore 3000), His-tagged CD3εδ coupled to chip, ProTIA as analyte at 5-6 concentrations
[8] = biological target: T5, human CD3 on cells (CD3+ Jurkat cells; purified human CD3 positive T cells) (human, UniProt P07766 23-207); experiment: cell-based or functional assay
[9] = biological target: T2, Fc-tagged EpCAM (R&D Systems, cat …); experiment: SPR (Biacore 3000), Fc-tagged EpCAM coupled to chip, ProTIA as analyte at 5-6 concentrations
[10] = biological target: T5, human CD3 on cells (CD3+ Jurkat cells; …); experiment: competition flow cytometry on CD3+ Jurkat cells
[11] = biological target: recombinant human CD3 epsilon & delta (rhCD3ε & δ), Creative BioMart cat #CD3E&CD3D-219H (human) (UniProt P07766); experiment: SPR
[12] = biological target: T6, recombinant human HER2 (AcroBiosystems cat #HE2-H525), coated on ELISA plate (human, UniProt P04626 23-652); experiment: sandwich ELISA: recombinant human HER2 coated, biotin-conjugated protein L detection
T6 construct: also called HER2 antigen

[13] = biological target: T5, human CD3 on cells (CD3+ Jurkat cells; …); experiment: competition flow cytometry on Jurkat cells
[14] = biological target: T3, human EpCAM expressed on cells (CHO …); experiment: competition flow cytometry on hEp-CHO 4-12B cells

recombinant human CD3 epsilon & delta (rhCD3ε & δ), Creative BioMart cat #CD3E&CD3D-219H (human), sequence (P07766 23-126, stated change not applied, chain 1 of 2): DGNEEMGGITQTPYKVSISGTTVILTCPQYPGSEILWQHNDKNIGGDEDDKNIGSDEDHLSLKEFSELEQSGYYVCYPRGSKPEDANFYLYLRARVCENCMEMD
recombinant human CD3 epsilon & delta (rhCD3ε & δ), Creative BioMart cat #CD3E&CD3D-219H (human), sequence (P04234 22-105, stated change not applied, chain 2 of 2, further chain): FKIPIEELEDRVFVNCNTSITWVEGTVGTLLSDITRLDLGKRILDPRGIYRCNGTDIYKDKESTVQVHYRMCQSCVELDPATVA
T5 sequence (P07766 23-207): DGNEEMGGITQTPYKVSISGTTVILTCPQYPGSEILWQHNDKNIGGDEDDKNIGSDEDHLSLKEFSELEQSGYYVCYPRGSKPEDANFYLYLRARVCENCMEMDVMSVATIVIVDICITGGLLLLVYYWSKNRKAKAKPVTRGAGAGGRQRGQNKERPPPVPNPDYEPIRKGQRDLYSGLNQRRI

| Binder | binding result [1] | fold stronger binding affinity than untreated and non-cleavable ProTIA [2] | EC50 [3] | fold stronger binding affinity than untreated and non-cleavable ProTIA [4] | EC50 [5] | EC50 [6] | Kd [7] | EC50, LDH release cytotoxicity, purified human CD3 positive T cells with OVCAR-3 cells 5:1 [8] | EC50, LDH release cytotoxicity, purified human CD3 positive T cells with SK-OV-3 cells 5:1 [8] | Kd [9] | fold stronger binding affinity than untreated and non-cleavable ProTIA [10] | fold stronger binding affinity than untreated and non-cleavable ProTIA [11] | binding result [12] | fold weaker binding affinity than cleaved AC1695 [13] | fold weaker binding affinity than cleaved AC1695 [14] |
| --- | --- | --- | --- | --- | --- | --- | --- | --- | --- | --- | --- | --- | --- | --- | --- |
| protease-treated (MMP-9 cleaved) AC1476 anti-EpCAM×anti-CD3 ProTIA (bispecific antibody, mass 58,071 Da); also called MMP-9 treated AC1476; MMP-9 treated AC1516) DIQMTQSPSSLSASVGDRVTITCRSTKSLLHSNGITYLYWYQQKPGKAPKLLIYQMSNLASGVPSRFSSSGSGTDFTLTISSLQPEDFATYYCAQNLEIPRTFGQGTKVEIKGATPPETGAETESPGETTGGSAESEPPGEGQVQLVQSGPGLVQPGGSVRISCAASGYTFTNYGMNWVKQAPGKGLEWMGWINTYTGESTYADSFKGRFTFSLDTSASAAYLQINSLRAEDTAVYYCARFAIKGDYWGQGTLLTVSSGGGGSDIQMTQSPSSLSASVGDRVTITCRASQDIRNYLNWYQQKPGKAPKLLIYYTSRLESGVPSRFSGSGSGTDYTLTISSLQPEDFATYYCQQGNTLPWTFGQGTKVEIKGATPPETGAETESPGETTGGSAESEPPGEGEVQLVESGGGLVQPGGSLRLSCAASGYSFTGYTMNWVRQAPGKGLEWVALINPYKGVSTYNQKFKDRFTISVDKSKNTAYLQMNSLRAEDTAVYYCARSGYYGDSDWYFDVWGQGTLVTVSSGTAEAASASGLSGRSDNHSPLG | no binding | ~10 fold | 0.31 nM | ~10 fold | 0.11 nM | 0.12 nM | 2.22 nM | 0.0003 nM | 0.0024 nM | 1.15 nM | ~30 fold | 10 fold | no binding |  |  |
| AC1886 anti-EpCAM×anti-CD3 ProTIA with two XTEN (XTEN292-RSR3058-anti-EpCAM-anti-CD3 tandem scFv-RSR3058-XTEN_867-6xHIS) (bispecific antibody, Uncleavable release segments RSR-3058; anti-EpCAM 4D5MOCB; hCD3.3) SPAGSPTSTEEGTSESATPESGPGTSTEPSEGSAPGTSESATPESGPGSEPATSGSETPGTSESATPESGPGSEPATSGSETPGTSESATPESGPGTSTEPSEGSAPGSPAGSPTSTEEGTSESATPESGPGSEPATSGSETPGTSESATPESGPGSPAGSPTSTEEGSPAGSPTSTEEGTSTEPSEGSAPGTSESATPESGPGTSESATPESGPGTSESATPESGPGSEPATSGSETPGSEPATSGSETPGSPAGSPTSTEEGTSTEPSEGSAPGTSTEPSEGSAPGGSAPTTGEAGEAAGATSAGATGPATSGSETPGTDIQMTQSPSSLSASVGDRVTITCRSTKSLLHSNGITYLYWYQQKPGKAPKLLIYQMSNLASGVPSRFSSSGSGTDFTLTISSLQPEDFATYYCAQNLEIPRTFGQGTKVEIKGATPPETGAETESPGETTGGSAESEPPGEGQVQLVQSGPGLVQPGGSVRISCAASGYTFTNYGMNWVKQAPGKGLEWMGWINTYTGESTYADSFKGRFTFSLDTSASAAYLQINSLRAEDTAVYYCARFAIKGDYWGQGTLLTVSSGGGGSDIQMTQSPSSLSASVGDRVTITCRASQDIRNYLNWYQQKPGKAPKLLIYYTSRLESGVPSRFSGSGSGTDYTLTISSLQPEDFATYYCQQGNTLPWTFGQGTKVEIKGATPPETGAETESPGETTGGSAESEPPGEGEVQLVESGGGLVQPGGSLRLSCAASGYSFTGYTMNWVRQAPGKGLEWVALINPYKGVSTYNQKFKDRFTISVDKSKNTAYLQMNSLRAEDTAVYYCARSGYYGDSDWYFDVWGQGTLVTVSSGTAEAASASGTTGEAGEAAGATSAGATGPSPGSPAGSPTSTEEGTSESATPESGPGTSTEPSEGSAPGSPAGSPTSTEEGTSTEPSEGSAPGTSTEPSEGSAPGTSESATPESGPGSEPATSGSETPGSEPATSGSETPGSPAGSPTSTEEGTSESATPESGPGTSTEPSEGSAPGTSTEPSEGSAPGSPAGSPTSTEEGTSTEPSEGSAPGTSTEPSEGSAPGTSESATPESGPGTSTEPSEGSAPGTSESATPESGPGSEPATSGSETPGTSTEPSEGSAPGTSTEPSEGSAPGTSESATPESGPGTSESATPESGPGSPAGSPTSTEEGTSESATPESGPGSEPATSGSETPGTSESATPESGPGTSTEPSEGSAPGTSTEPSEGSAPGTSTEPSEGSAPGTSTEPSEGSAPGTSTEPSEGSAPGTSTEPSEGSAPGSPAGSPTSTEEGTSTEPSEGSAPGTSESATPESGPGSEPATSGSETPGTSESATPESGPGSEPATSGSETPGTSESATPESGPGTSTEPSEGSAPGTSESATPESGPGSPAGSPTSTEEGSPAGSPTSTEEGSPAGSPTSTEEGTSESATPESGPGTSTEPSEGSAPGTSESATPESGPGSEPATSGSETPGTSESATPESGPGSEPATSGSETPGTSESATPESGPGTSTEPSEGSAPGSPAGSPTSTEEGTSESATPESGPGSEPATSGSETPGTSESATPESGPGSPAGSPTSTEEGSPAGSPTSTEEGTSTEPSEGSAPGTSESATPESGPGTSESATPESGPGTSESATPESGPGSEPATSGSETPGSEPATSGSETPGSPAGSPTSTEEGTSTEPSEGSAPGTSTEPSEGSAPGSEPATSGSETPGTSESATPESGPGTSTEPSEGSAPGHHHHHH |  |  |  |  |  |  |  |  |  |  |  |  |  | ~30 fold | ~100 fold |
